According to patent publication US20160310424A1 (Stanford University, published 2016):

Legend:
[1] = target: T1, low-density lipoprotein receptor-related protein 6 (LRP6) (UniProt O75581 20-1370, limits assumed); test: binding affinity stated in the FIG. 17 legend on the pull-down assays; method behind the value not described
T1 sequence (looked up): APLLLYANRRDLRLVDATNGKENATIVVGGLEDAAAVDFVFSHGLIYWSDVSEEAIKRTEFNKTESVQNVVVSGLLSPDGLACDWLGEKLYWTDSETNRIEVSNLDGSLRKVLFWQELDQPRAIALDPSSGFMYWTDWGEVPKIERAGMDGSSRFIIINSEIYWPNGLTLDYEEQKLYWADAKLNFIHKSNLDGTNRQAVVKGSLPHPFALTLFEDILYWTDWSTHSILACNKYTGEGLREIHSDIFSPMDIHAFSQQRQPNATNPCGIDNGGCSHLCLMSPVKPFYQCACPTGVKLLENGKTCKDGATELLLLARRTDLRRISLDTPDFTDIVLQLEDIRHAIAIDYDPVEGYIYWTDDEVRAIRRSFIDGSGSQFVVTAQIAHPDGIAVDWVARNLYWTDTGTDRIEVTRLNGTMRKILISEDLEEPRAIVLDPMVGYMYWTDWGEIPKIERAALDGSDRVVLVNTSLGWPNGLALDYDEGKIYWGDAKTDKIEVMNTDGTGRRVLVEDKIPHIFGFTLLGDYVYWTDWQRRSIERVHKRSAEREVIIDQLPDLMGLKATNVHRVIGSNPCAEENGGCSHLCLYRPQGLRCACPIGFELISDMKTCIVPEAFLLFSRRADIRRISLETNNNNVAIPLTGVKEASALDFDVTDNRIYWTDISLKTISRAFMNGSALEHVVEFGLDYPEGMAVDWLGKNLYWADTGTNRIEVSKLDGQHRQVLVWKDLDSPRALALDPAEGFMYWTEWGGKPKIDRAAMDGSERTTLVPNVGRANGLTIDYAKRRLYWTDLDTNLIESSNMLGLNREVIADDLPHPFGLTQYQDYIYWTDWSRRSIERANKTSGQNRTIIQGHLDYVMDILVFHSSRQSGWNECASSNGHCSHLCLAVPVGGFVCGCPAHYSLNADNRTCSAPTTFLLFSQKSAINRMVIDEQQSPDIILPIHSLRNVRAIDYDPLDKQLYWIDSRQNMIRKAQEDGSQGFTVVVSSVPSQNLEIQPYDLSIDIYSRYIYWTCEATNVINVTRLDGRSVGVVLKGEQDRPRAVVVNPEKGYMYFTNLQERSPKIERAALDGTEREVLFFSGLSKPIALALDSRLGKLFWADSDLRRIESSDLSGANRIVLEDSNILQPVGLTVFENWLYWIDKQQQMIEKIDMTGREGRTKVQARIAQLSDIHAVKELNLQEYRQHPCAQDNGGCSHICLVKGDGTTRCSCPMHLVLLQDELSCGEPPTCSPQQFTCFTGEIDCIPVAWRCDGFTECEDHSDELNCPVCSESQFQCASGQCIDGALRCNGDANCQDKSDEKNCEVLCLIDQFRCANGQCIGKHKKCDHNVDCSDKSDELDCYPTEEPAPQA

Frizzled = target: T2, Frizzled; test: binding affinity stated with the liposome/Frizzled pull-down competition assay; method behind the value not described
T2 construct: also called Fz; Frizzled, the WNT receptor

Kd [1]: ~9 nM
Kd (Frizzled): ~3.6 nM
B1: Human Wnt3a polypeptide (ligand)
chain: SYPIWWSLAVGPQYSSLGSQPILCASIPGLVPKQLRFCRNYVEIMPSVAEGIKIGIQECQHQFRGRRWNCTTVHDSLAIFGPVLDKATRESAFVHAIASAGVAFAVTRSCAEGTAAICGCSSRHQGSPGKGWKWGGCSEDIEFGGMVSREFADARENRPDARSAMNRHNNEAGRQAIASHMHLKCKCHGLSGSCEVKTCWWSQPDFRAIGDFLKDKYDSASEMVVEKHRESRGWVETLRPRYTYFKVPTERDLVYYEASPNFCEPNPETGSFGTRDRTCNVSSHGIDGCDLLCCGRGHNARAERRREKCRCVFHWCCYVSCQECTRVYDVHTCK
modifications: palmitoylated at S209 (paragraph 228 instead reports palmitoylation at S211 and probable myristoleylation at S139 and S181); glycosylated
notes: Secreted from CHO cells and purified on blue Sepharose; In the pull-down assays it was reconstituted into DMPC:cholesterol liposomes (L-Wnt3a); also called L-Wnt3a; L-WNT3A
